Measurements from patent US5972902, “DNA encoding human IL-6 receptor antagonist and protein encoded thereby” (dated 1999).
Numbering of substitutions follows the chain as printed. In names and notes the source's numbering stands.

B1: IL-6 DFRD/D160R (ligand)
chain: PVPPGEDSKDVAAPHRQPLTSSERIDKQIRDILDFISALRKETCNKSNMCESSKEALAENNLNLPKMAEKDGCFQSGFNEETCLVKIITGLLEFEVYLEYLQNRFESSEEQARAVQMRTKDLIQFLQKKAKNLDAITTPDPTTNASLLTKLQAQNQWLQRMTTHLILRSFKEFLQSSLRALRQM
B2: IL-6 DFRD/T162D (ligand)
chain: B1 chain with R160D, T162D
B3: IL-6 DFRD/W157R/D160R (ligand)
chain: B1 chain with W157R

Columns and labels:
[1] = molecular target: T1, hIL-6 receptor (human, UniProt P08887)
[2] = molecular target: T1, hIL-6 receptor; experiment: receptor binding assay by the method of Savino et al. 1994
Protocol: The proteins IL-6 DFRD/D160R (coded by the cDNA described in SEQ ID NO:4), IL-6 DFRD/W157R/D160R (coded by the cDNA described in SEQ ID NO:5) and IL-6 DFRD/T162D (coded by the cDNA described in SEQ ID NO:6) were produced according to the state of the art, as described (Arcone, R., Pucci, P., Zappacosta, F., Fontaine, V., Malorni, A., Marino, G., and Ciliberto, G., Eur. J. Biochem. 198, 541–547, 1991). The ability of the mutants to bind to the hIL-6 receptor was measured using state of the art methods, as described (Savino, R., Lahm, A., Salvati, A. L., Ciapponi, L., Sporeno, E., Altamura, S., Paonessa, G., Toniatti, C., Ciliberto, G., EMBO J. 13, 1357–1367, 1994). Table 1 below gives the receptor binding levels for wild type IL-6 and for the mutant forms obtained as described in example 1.

[3] = molecular target: gp130 (Homo sapiens (Human), UniProt P40189); experiment: cell-based or functional assay

Molecule | 90% inhibition of interleukin-6 activity on hepatoma cells Hep3B (4 ng/ml wild type IL-6) [1] [ng/mL] | 90% inhibition of interleukin-6 activity on myeloma cells XG-1 (IL-6-dependent growth, 0.1 ng/ml wild type IL-6) [1] [ng/mL] | 90% inhibition of interleukin-6 activity on myeloma cells XG-2 (IL-6-dependent growth, 0.5 ng/ml wild type IL-6) [1] [ng/mL] | ability to bind to the IL-6 receptor (% of wild type) [2] [%] | Biological activity on human hepatoma cells [3] [%]
Sant7 (ligand) | 30 | 35 | 950 |  | 
B1 |  |  |  | 137 | 
B2 |  |  |  | 39 | 0
B3 |  |  |  | 130 | 0
